The text below walks through data of PMC12341506.

The target in the assay is 3nv.2 SOSIP Env trimer (HIV-1 (clade C strain 426c)). Briefly: cryo-EM structure; single-particle cryo-EM of unliganded 3nv.2 SOSIP Env, from a sample incubated with polyclonal Fabs and purified by SEC in TBS; 2D class averages and 3D map, C1 or C3 symmetry. For orientation: Size exclusion chromatography separates by hydrodynamic size, large species first.

As usually defined, the stoichiometry N is the number of molecules, sites or subunits per partner or assembly. On to 3nv.2 SOSIP Env trimer, for which the stoichiometry N worked out at 3.
